Assay results published in patent US5683884 (ZymoGenetics, Inc., dated 1997).
Bridges are numbered along the chain shown (N, C = ends). Where no end group is shown, it is not given here.

Assays:
[1] = molecular target: T1, human calcitonin receptor (cDNA clone pHollex, from T-47D breast carcinoma cDNA), expressed in transfected … (human); assay: 125I calcitonin competition binding on whole cells, clone Hollex2, average
T1 chain: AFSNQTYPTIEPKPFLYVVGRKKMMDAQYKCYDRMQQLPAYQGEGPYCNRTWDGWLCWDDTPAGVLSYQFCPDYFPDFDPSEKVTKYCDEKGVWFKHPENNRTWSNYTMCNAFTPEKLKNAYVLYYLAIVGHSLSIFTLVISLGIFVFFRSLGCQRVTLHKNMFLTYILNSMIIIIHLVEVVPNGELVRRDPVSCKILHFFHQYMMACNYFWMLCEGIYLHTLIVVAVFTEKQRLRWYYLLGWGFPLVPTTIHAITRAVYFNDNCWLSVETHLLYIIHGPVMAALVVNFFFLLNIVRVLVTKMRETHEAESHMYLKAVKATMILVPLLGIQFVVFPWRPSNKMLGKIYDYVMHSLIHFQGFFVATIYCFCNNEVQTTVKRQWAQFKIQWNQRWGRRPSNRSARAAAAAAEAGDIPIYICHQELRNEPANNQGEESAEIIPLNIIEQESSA
Procedure: (§1) Clones Hollex1 and Hollex2 were tested for receptor-mediated ability to bind calcitonin using a competition assay. T47D cells were used as a positive control and BHK cells transfected with Zem1698 were used as a negative control.
(§2) The cells were plated at a density of 1×10^5 cells/well in a 24-well cell culture dish and allowed to grow for 48 hours at 37° C. and 5% CO_2 in growth medium (described in previous examples). The cells were rinsed in binding medium (500 ml RPMI 1640 (Sigma, St. Louis, Mo.), 1 mg/ml bacitracin (Sigma), and 1 mg/ml BSA (Boehringer Mannheim)) to remove the serum. Three hundred microliters of binding medium containing radiolabeled ^125I agonist and a serial dilution of unlabeled competitor (Table 1) were added to appropriate wells. The cells were incubated for 1.5 hours at room temperature, and then rinsed 3 times with PBS to remove unincorporated radioactivity. Five hundred microliters of 0.25N NaOH was added to each well to solubilize the cells. The samples were collected from each well and CPMs were counted on a gamma counter.

[2] = molecular target: T2, calcitonin receptor of T-47D human breast carcinoma cells (endogenous, positive control) (human, UniProt P30988); assay: 125I calcitonin competition binding on whole T47D cells (positive control), average
T2 sequence: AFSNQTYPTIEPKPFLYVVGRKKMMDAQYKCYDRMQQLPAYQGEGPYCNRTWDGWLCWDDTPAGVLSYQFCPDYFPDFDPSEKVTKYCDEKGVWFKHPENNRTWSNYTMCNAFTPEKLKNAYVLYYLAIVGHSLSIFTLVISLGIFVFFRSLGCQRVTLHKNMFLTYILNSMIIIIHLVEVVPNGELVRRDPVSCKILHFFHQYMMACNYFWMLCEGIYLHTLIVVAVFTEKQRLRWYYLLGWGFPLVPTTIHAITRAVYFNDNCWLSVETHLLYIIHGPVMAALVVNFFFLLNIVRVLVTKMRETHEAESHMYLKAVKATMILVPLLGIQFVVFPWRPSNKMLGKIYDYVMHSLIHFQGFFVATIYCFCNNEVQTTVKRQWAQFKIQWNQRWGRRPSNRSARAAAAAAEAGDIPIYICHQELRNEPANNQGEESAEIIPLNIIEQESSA
Procedure: as §1, §2

[3] = molecular target: T3, human calcitonin receptor (cDNA clone pHollex, from T-47D breast carcinoma cDNA), expressed in transfected BHK cells (human)
T3 sequence: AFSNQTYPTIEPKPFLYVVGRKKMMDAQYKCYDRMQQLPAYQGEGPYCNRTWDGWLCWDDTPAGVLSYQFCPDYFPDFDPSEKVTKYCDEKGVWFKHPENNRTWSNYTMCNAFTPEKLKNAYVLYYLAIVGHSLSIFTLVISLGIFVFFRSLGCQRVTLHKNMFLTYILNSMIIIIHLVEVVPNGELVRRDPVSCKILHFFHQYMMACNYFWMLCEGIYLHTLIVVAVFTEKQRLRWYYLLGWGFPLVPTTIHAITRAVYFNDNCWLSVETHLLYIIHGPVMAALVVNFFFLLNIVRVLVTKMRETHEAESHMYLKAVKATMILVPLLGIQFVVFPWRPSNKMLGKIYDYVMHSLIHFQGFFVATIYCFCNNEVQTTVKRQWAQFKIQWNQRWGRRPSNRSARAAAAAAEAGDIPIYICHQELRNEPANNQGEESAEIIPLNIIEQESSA

[4] = molecular target: T1, human calcitonin receptor (cDNA clone …); assay: 125I calcitonin competition binding on whole cells, clone Hollex1, average
Procedure: as §1, §2

[5] = molecular target: T3, human calcitonin receptor (cDNA clone pHollex, from T-47D breast carcinoma cDNA), expressed in transfected BHK cells (human); remark: listed apart in the source

Binder: CSNLSTCVLGKLSQELHKLQTYPRTNTGSGTP-NH2 (ligand, disulfide 1-7; ends not checked; also: also used 125I-labelled as tracer) [salmon calcitonin]
- Kd [1]: 0.3 nM
- Kd [2]: 0.6 nM
- ED50 of labeled inositol phosphate levels (Hollex1) [3]: 9.5 nM
- Kd [4]: 0.5 nM
- ED50 of cAMP induction (Hollex1) [5]: 0.07 nM
- ED50 of cAMP induction (Hollex2) [5]: 0.04 nM
- induction of cAMP (radioimmunoassay, scintillation proximity assay) (fold induction) [5]: 12
